According to patent US20250326843A1 (published 2025):
Where a chain is given by its changes, count along the chain named.

T1: murine B7-H4 (murine, UniProt Q7TSP5 25-257)
T1 chain: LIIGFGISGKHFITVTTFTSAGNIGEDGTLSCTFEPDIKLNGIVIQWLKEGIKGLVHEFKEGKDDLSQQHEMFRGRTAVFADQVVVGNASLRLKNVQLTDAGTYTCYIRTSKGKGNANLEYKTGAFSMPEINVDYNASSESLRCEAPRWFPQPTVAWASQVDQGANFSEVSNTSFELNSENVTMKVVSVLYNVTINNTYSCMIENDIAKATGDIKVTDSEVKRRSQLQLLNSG

T2: human B7-H4 (human, UniProt Q7Z7D3 25-282)
T2 chain: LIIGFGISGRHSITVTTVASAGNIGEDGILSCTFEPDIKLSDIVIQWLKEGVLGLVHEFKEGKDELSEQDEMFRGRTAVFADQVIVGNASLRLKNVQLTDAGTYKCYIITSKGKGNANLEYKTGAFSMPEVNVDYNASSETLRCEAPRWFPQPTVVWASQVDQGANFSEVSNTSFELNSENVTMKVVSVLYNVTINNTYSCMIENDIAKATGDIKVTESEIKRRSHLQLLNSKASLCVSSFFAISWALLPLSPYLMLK

T3: cynomolgus monkey B7-H4 (cynomolgus monkey, UniProt A0A2K5U6P5 25-282)
T3 chain: T2 chain with L53I, F242L, S252A

B1: Urelumab (antibody, V domains shown)
VH: QVQLQQWGAGLLKPSETLSLTCAVYGGSFSGYYWSWIRQSPEKGLEWIGEINHGGYVTYNPSLESRVTISVDTSKNQFSLKLSSVTAADTAVYYCARDYGPGNYDWYFDLWGRGTLVTVSS
VL: EIVLTQSPATLSLSPGERATLSCRASQSVSSYLAWYQQKPGQAPRLLIYDASNRATGIPARFSGSGSGTDFTLTISSLEPEDFAVYYCQQRSNWPPALTFGGGTKVEIK
B2: B7-H4×CD3 bispecific antibody PR003733 (bispecific antibody)
light: QAVVTQEPSLTVSPGGTVTLTCRSSTGAVTTSNYANWVQQKPGQAPRGLIGGTNKRAPWTPARFSGSLLGDKAALTLLGAQPEDEAEYFCALWYSNLWVFGGGTKLTVLGQPKAAPSVTLFPPSSEELQANKATLVCLISDFYPGAVTVAWKADSSPVKAGVETTTPSKQSNNKYAASSYLSLTPEQWKSHRSYSCQVTHEGSTVEKTVAPTECS
heavy: not shown
chain: EIVMTQSPASLSVSPGERATLSCRASQSVSSNLAWYQQKPGQAPRLLIYGASTRATGIPARVSGGGSGTEFTLTISSLQSEDFAVYYCQQYKNWPFTFGPGTKLEIKGGGGSGGGGSGGGGSGGGGSQVQLVQSGAEVKKPGSSMRVSCKASEDTFSSYAISWVRQAPGQGLEWMGGTAPIFGTTNYAQKFQGRVTITADKSTSTAYMELSSLRSEDTAVYYCARGGPYFDYWGQGTLVTVSSASEPKSSDKTHTCPPCPAPEAAGGPSVFLFPPKPKDTLMISRTPEVTCVVVDVSHEDPEVKFNWYVDGVEVHNAKTKPREEQYNSTYRVVSVLTVLHQDWLNGKEYKCKVSNKALPAPIEKTISKAKGQPREPQVCTLPPSREEMTKNQVSLSCAVKGFYPSDIAVEWESNGQPENNYKTTPPVLDSDGSFFLVSKLTVDKSRWQQGNVFSCSVMHEALHNHYTQKSLSLSPGK
B3: B7-H4×CD3 bispecific antibody PR003899 (bispecific antibody)
light: B2 light
heavy: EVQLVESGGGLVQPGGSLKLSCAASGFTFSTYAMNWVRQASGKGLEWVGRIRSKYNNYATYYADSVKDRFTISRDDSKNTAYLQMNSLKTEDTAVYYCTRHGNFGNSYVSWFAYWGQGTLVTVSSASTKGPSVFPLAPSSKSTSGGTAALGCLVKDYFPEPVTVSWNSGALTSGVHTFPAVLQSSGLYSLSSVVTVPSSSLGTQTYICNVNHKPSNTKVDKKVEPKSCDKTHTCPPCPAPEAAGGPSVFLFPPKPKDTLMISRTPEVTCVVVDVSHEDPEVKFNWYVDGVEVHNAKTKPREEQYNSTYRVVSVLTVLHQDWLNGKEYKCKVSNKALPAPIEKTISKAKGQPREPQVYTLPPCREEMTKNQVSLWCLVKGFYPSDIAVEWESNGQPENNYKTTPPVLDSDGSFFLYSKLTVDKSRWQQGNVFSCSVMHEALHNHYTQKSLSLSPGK
chain: B2 chain

Assays:
[1] = biological target: human 4-1BB (human, UniProt Q07011 24-255); assay: flow cytometry
Sequence of human 4-1BB (Q07011 24-255): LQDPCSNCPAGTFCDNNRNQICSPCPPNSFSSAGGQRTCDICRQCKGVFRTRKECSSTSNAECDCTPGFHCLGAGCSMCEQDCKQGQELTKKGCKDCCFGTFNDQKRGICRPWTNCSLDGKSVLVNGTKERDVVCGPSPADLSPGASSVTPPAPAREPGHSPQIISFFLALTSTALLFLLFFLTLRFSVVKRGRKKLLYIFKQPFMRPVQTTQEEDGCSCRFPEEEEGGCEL

[2] = biological target: CD3 on human T cells (human, UniProt P07766 23-207); assay: flow cytometry; T cells
Sequence of CD3 on human T cells (P07766 23-207): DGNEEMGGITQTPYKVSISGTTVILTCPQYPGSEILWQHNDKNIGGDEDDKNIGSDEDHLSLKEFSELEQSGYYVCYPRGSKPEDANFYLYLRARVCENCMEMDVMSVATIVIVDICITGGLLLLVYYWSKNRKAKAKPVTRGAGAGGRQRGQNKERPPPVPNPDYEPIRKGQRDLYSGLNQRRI

[3] = biological target: T1, murine B7-H4; assay: flow cytometry; CHO-K1/m B7H4 cells
[4] = biological target: T2, human B7-H4; assay: flow cytometry; CHO-K1/hu B7H4 cells
[5] = biological target: T3, cynomolgus monkey B7-H4; assay: flow cytometry; CHO-K1/cyno B7H4 cells

Binder | EC50 [1] | EC50 [2] | EC50 [3] | EC50 [4] | EC50 [5]
B1 | 1.63 nM |  |  |  | 
B2 |  | ~59.3 nM | ~250 nM | 7.7 nM | 5.83 nM
B3 |  | ~201 nM | ~62.5 nM | 6.06 nM | 4.96 nM
